Assay results published in patent publication US5861491.

How the values were obtained:
[1] = target: human serum albumin immobilized on Sepharose (human) (UniProt P02768); test: 125I-hLF retained on HSA-Sepharose, +0.2% Tween-20
[2] = target: human serum albumin immobilized on Sepharose (human) (UniProt P02768); test: 125I-hLF retained on HSA-Sepharose, +0.2% Tween-20 +2 M NaCl
[3] = target: human serum albumin immobilized on Sepharose (human) (UniProt P02768); test: 125I-hLF retained on HSA-Sepharose, +0.2% Tween-20 +0.5 M NaCl
[4] = target: human serum albumin immobilized on Sepharose (human) (UniProt P02768); test: 125I-hLF retained on HSA-Sepharose, +0.2% Tween-20 +0.25 M NaCl
[5] = target: human serum albumin immobilized on Sepharose (human) (UniProt P02768); test: 125I-hLF retained on HSA-Sepharose, +0.2% Tween-20 +0.1% Polybrene
[6] = target: human serum albumin immobilized on Sepharose (human) (UniProt P02768); test: 125I-hLF retained on HSA-Sepharose, 10 mM sodium phosphate, 0.15M NaCl, pH 7.4, no addition
[7] = target: caseins (casein fraction of whole bovine milk); test: co-sedimentation of bLF with the casein pellet of whole cow milk (centrifugation only, no addition), bLF read by competitive inhibition RIA

percentage binding [1] [%]	percentage binding [2] [%]	percentage binding [3] [%]	percentage binding [4] [%]	percentage binding [5] [%]	percentage binding [6] [%]	% of total bLF found in casein fraction [7] [%]	Substance
9	4	3	4	4	8	–	125I-labelled human lactoferrin (from UniProt P02788)
–	–	–	–	–	–	21	bovine lactoferrin (from UniProt P24627)
